Measured values reported in publication doi:10.1101/2022.11.29.518402 (bioRxiv, 2022).

How the values were obtained:
[1] = target: T1, EMC3(T102C)-GFP, cysteine in loop 2 of EMC3 (human, UniProt Q9P0I2 1-261, T102C); experiment: cross-linking
T1 sequence: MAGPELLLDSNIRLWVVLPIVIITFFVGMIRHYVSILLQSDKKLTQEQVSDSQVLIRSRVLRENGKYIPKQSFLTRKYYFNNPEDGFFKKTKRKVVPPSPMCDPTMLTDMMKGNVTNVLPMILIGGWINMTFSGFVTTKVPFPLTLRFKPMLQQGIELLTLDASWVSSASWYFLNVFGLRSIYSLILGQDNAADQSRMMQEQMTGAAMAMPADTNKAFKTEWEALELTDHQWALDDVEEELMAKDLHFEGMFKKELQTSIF

[2] = target: T2, ALFA-EMC7(M214C), cysteine in helix 2 (H2) of EMC7 (human, UniProt Q9NPA0 24-242, M214C); experiment: cross-linking
T2 sequence: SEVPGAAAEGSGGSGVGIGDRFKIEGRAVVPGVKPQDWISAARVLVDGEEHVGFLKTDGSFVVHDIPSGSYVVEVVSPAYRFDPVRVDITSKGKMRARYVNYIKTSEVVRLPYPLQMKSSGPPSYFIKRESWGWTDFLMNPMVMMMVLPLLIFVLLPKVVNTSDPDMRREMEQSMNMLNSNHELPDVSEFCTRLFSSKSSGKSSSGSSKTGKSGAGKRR

B1: SQS(L401C): 3xFLAG-Sec61β(2-59, C39S)-SQS(378-end) with a cysteine at L401 in the TMD (other)
chain: PGPTPSGTNVGSSGRSPSKAVAARAAGSTVRQRKNASSGTRSAGRTTSAGTGGMWRFYSRSHYSPIYLSFVMLLAALSWQYCTTLSQVTEDYVQTGEH
modifications: 35S-methionine labelled
binding result [1]: binds
binding result [2]: binds
